# T1: human PD-L2 (full length, on CHO cells) (human, UniProt Q9BQ51 20-273)
# T1 construct: whole, on cells; also called CHO-PD-L2 cells
# T1 sequence (looked up): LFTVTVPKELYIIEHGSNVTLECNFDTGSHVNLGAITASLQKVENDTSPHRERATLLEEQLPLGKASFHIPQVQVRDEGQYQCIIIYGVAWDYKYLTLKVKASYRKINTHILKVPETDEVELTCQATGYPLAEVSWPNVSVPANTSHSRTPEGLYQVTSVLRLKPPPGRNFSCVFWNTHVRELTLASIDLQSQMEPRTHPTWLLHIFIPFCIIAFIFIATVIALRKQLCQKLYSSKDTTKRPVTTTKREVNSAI
# B1: IgG1-625-FEAR-A488 (antibody, V domains shown)
# VH: HMQLVESGGGVAQPGRSLRLSCAASGFTFSNYGMHWVRQAPGRGLEWLAVMSYDGETKYYADSVKGRFTISRDNSENTLFLQMNSLRAEDTAVYYCAKDTSNGWNYYFYGMDVWGQGTTVTVSS
# VL: SYELTQPPSVSVSPGQTARITCSGDALPKKFASWYQQKSGQAPVLVIYEDSKRPSGIPERVSGSSSGTMATLTISGAQTEDEADYYCYSTDRSGYHWVFGGGTKLTVL
# notes: also called control antibody of the alanine scan
# B2: bsIgG1-huCD3-H1L1-FEAL×338-FEAR (bispecific antibody)
# heavy 1: not shown
# VL: not shown
# heavy 2: EVQVVESGGGLVQPGGSLRLSCAASGFTFSRFWMSWVRQAPGKGLEWVANIKQDGGEKYYVDSVKGRFTISRDNAKNSLYLQMNSLRGEDTAVYYCARDDNWNGHFDYWGQGTLVTVSSASTKGPSVFPLAPSSKSTSGGTAALGCLVKDYFPEPVTVSWNSGALTSGVHTFPAVLQSSGLYSLSSVVTVPSSSLGTQTYICNVNHKPSNTKVDKRVEPKSCDKTHTCPPCPAPEFEGGPSVFLFPPKPKDTLMISRTPEVTCVVVAVSHEDPEVKFNWYVDGVEVHNAKTKPREEQYNSTYRVVSVLTVLHQDWLNGKEYKCKVSNKALPAPIEKTISKAKGQPREPQVYTLPPSREEMTKNQVSLTCLVKGFYPSDIAVEWESNGQPENNYKTTPPVLDSDGSFFLYSRLTVDKSRWQQGNVFSCSVMHEALHNHYTQKSLSLSPGK
# light: DIQMTQSPSTLSASVGDRVTITCRASQSISSWLAWYQQKPGKAPNLLIYKASSLESGVPSRFSGSGSGTEFTLTISSLQPDDFATYYCQQYYGSYITFGQGTRLEIKRTVAAPSVFIFPPSDEQLKSGTASVVCLLNNFYPREAKVQWKVDNALQSGNSQESVTEQDSKDSTYSLSSTLTLSKADYEKHKVYACEVTHQGLSSPVTKSFNRGEC
# B3: bsIgG1-huCD3-H1L1-FEAL×547-FEAR (bispecific antibody)
# heavy 1: not shown
# VL: not shown
# heavy 2: EVQLLEPGGGLVQPGGSLRLSCEASGSTFSTYAMSWVRQAPGKGLEWVSGFSGSGGFTFYADSVRGRFTISRDSSKNTLFLQMSSLRAEDTAVYYCAIPARGYNYGSFQHWGQGTLVTVSSASTKGPSVFPLAPSSKSTSGGTAALGCLVKDYFPEPVTVSWNSGALTSGVHTFPAVLQSSGLYSLSSVVTVPSSSLGTQTYICNVNHKPSNTKVDKRVEPKSCDKTHTCPPCPAPEFEGGPSVFLFPPKPKDTLMISRTPEVTCVVVAVSHEDPEVKFNWYVDGVEVHNAKTKPREEQYNSTYRVVSVLTVLHQDWLNGKEYKCKVSNKALPAPIEKTISKAKGQPREPQVYTLPPSREEMTKNQVSLTCLVKGFYPSDIAVEWESNGQPENNYKTTPPVLDSDGSFFLYSRLTVDKSRWQQGNVFSCSVMHEALHNHYTQKSLSLSPGK
# light: SYVLTQPPSVSVAPGQTARITCGGNNIGSKSVHWYQQKPGQAPVLVVYDDNDRPSGLPERFSGSNSGNTATLTISRVEAGDEADYYCQVWDSSSDHVVFGGGTKLTVLGQPKAAPSVTLFPPSSEELQANKATLVCLISDFYPGAVTVAWKADSSPVKAGVETTTPSKQSNNKYAASSYLSLTPEQWKSHRSYSCQVTHEGSTVEKTVAPTECS
# B4: IgG1-516-FEAR (antibody, V domains shown)
# VH: QVQLQESGPGLVKPSDTLSLTCAVSDYSISSNDWWGWIRQPPGKGLEWIGYIYYSGTGYYNPSLKSRVTISIDTSKNQFSLKLNSVTAVDTAVYYCARTRVGARRAFDYWGQGTLVTVSS
# VL: SYVLTQPPSVSVAPGQTARITCGGNNIGSKSVHWYQQKPGQAPVLVVYDDSDRPSGIPERFSGSNSGNTATLTISRVEAGDEADYYCQVWDSSSDHVVFGGGTKLTVL
# Key:
# [1] = molecular target: T2, human PD-L1 (full length, on cells) (human, UniProt Q9NZQ7 19-290); assay: flow cytometry on HEK293 cells expressing wild type or alanine-mutant PD-L1
# T2 construct: The entry holds the signal peptide; also called CD274; B7H1
# [2] = molecular target: T2, human PD-L1 (full length, on cells); assay: flow cytometry on HELA cells, PE anti-human IgG secondary, MFI (PE)
# Procedure: (§1) Cells (3-5×10⁴ cells/well) were incubated in polystyrene 96-well round-bottom plates (Greiner bio-one, cat. no. 650101) with serial dilutions of antibodies (range 0.0001 to 10 μg/mL in 5-fold dilution steps) in 50 μL PBS/0.1% BSA/0.02% azide (staining buffer) at 4° C. for 30 min.
# (§2) After washing twice in staining buffer, cells were incubated in 50 μL secondary antibody at 4° C. for 30 min. As a secondary antibody, R-Phycoerythrin (PE)-conjugated goat-anti-human IgG F(ab′)₂ (Cat. no. 109-116-098, Jackson ImmunoResearch Laboratories, Inc., West Grove, Pa.) diluted 1:500 in staining buffer, was used for all experiments. Next, cells were washed twice in staining buffer, re-suspended in 20 μL staining buffer and analyzed on an iQue screener (Intellicyt Corporation, USA). Binding curves were analyzed using non-linear regression (sigmoidal dose-response with variable slope) using GraphPad Prism V75.04 software (GraphPad Software, San Diego, Calif., USA).
# [3] = molecular target: T2, human PD-L1 (full length, on cells); assay: flow cytometry on MDA-MB-231 cells, PE anti-human IgG secondary, MFI (PE)
# Procedure: as §1, §2
# [4] = molecular target: T3, cynomolgus monkey PD-L1 (full length, on CHO cells) (cynomolgus monkey (Macaca fascicularis), UniProt G7PSE7 19-290); assay: flow cytometry on CHO cells transfected with cynomolgus PD-L1, PE anti-human IgG secondary, MFI (PE)
# T3 construct: whole, on cells; also called PDL1 Mf; cynomolgus PD-L1
# Procedure: as §1, §2
# Binding to CHO cells expressing cynomolgus PD-L1 was determined by flow cytometry using a method as described above.
# [5] = molecular target: T2, human PD-L1 (full length, on cells); assay: flow cytometry on PC3 cells, PE anti-human IgG secondary, MFI (PE)
# Procedure: as §1, §2
# [6] = molecular target: T1, human PD-L2 (full length, on CHO cells); assay: flow cytometry on CHO cells expressing human PD-L2
# Procedure: as §1, §2
# A PE-conjugated PD-L2 specific antibody (Mylteni, clone MIH18; cat. no. 130-098-651) was used as positive control.
# [7] = molecular target: T2, human PD-L1 (full length, on cells); assay: flow cytometry on MDA-MB-231 cells, PE anti-human IgG secondary, MFI (PE); remark: listed apart in the source
# Procedure: as §1, §2
# [8] = molecular target: T4, PDLoneECDHisCtag (human, UniProt Q9NZQ7 19-238); assay: BLI cross-block, second antibody on PDLoneECDHisCtag held by immobilised 476-N101Q-LC33S; plain = non-blocking
# T4 construct: Expressed in HEK-293F cells; theoretical molecular weight 29 kDa; also called recombinant human PD-L1 ECD; human PD-L1 (BLI); not shown: C-terminal His-tag; C-tag
# Procedure: (§3) Antibody cross-block testing was performed using biolayer interferometry (BLI) on an Octet HTX instrument (ForteBio). Antibodies (20 μg/ml in 10 mM sodium acetate buffer pH 6.0 (ForteBio)) were immobilized on Amine-Reactive 2nd Generation (AR2G) biosensors (ForteBio) according to the instructions of the manufacturer. After a baseline (50 s) in Sample Diluent (ForteBio), biosensors containing immobilized antibodies were loaded for 500 s with PDLoneECDHisCtag (100 nM or 2.7 μg/ml), after which the association response of a second antibody (10 μg/ml) was followed for 500 s. Biosensors were regenerated by using 3 times 5 s alternating exposures to 10 mM glycine pH 2.5 and Sample Diluent. The experiment was repeated with a new set of second antibodies starting from the baseline step. Each biosensor was used 6 times. The experiment was performed at 30° C. using a shaker speed of 1000 rpm. Data was analyzed using Data Analysis Software v9.0.0.12 (ForteBio). The Y-axis was aligned to the association step and Savitzky-Golay filtering was applied. The average buffer response was subtracted from the association response of the second antibody in order to correct for the dissociation of PDLoneECDHisCtag from the immobilized antibody. The corrected association responses were plotted in a matrix format.
# [9] = molecular target: T4, PDLoneECDHisCtag; assay: BLI cross-block, second antibody on PDLoneECDHisCtag held by immobilised 516; bold = blocking
# Procedure: as §3
# [10] = molecular target: T4, PDLoneECDHisCtag; assay: BLI cross-block, second antibody on PDLoneECDHisCtag held by immobilised MPDL; bold = blocking
# Procedure: as §3
# [11] = molecular target: T4, PDLoneECDHisCtag; assay: BLI cross-block, second antibody on PDLoneECDHisCtag held by immobilised 632; plain = non-blocking
# Procedure: as §3
# [12] = molecular target: T4, PDLoneECDHisCtag; assay: BLI cross-block, second antibody on PDLoneECDHisCtag held by immobilised 421-LC91S; bold = blocking
# Procedure: as §3
# [13] = molecular target: T4, PDLoneECDHisCtag; assay: BLI cross-block, second antibody on PDLoneECDHisCtag held by immobilised 547; plain = non-blocking
# Procedure: as §3
# [14] = molecular target: T4, PDLoneECDHisCtag; assay: BLI cross-block, second antibody on PDLoneECDHisCtag held by immobilised 511-LC33S; plain = non-blocking
# Procedure: as §3
# T2 sequence (Q9NZQ7 19-290 limits assumed): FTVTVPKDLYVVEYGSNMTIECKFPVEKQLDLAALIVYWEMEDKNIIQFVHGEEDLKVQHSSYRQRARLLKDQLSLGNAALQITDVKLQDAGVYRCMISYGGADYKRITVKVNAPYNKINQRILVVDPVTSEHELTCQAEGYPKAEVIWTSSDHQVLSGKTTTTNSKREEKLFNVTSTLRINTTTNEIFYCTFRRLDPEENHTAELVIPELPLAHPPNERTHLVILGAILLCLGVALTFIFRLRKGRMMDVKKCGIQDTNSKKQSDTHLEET
# T4 sequence (Q9NZQ7 19-238, form in doubt): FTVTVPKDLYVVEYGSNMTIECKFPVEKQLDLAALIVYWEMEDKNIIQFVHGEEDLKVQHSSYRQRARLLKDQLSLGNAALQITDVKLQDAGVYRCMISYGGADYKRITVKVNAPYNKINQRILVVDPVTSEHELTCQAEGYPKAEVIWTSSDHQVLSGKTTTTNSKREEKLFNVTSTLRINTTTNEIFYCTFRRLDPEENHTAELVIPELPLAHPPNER
# T3 sequence (G7PSE7 entry or part of it): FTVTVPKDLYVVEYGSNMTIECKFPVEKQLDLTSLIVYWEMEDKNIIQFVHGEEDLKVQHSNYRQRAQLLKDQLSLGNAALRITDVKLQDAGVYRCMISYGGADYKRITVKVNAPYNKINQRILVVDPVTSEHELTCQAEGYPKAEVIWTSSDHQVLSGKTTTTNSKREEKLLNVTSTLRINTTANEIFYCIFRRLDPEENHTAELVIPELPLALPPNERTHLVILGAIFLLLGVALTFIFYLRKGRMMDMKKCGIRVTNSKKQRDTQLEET
binder,measurement,setting,value
B1,binding result,[1],binds
B2,EC50 (read off the curve),[2],~0.02 µg/mL
same,EC50 (read off the curve),[3],~0.1 µg/mL
same,EC50 (read off the curve),[4],~0.09 µg/mL
same,EC50 (read off the curve),[5],~0.03 µg/mL
same,binding result,[6],no binding
B3,EC50 (read off the curve),[2],~0.02 µg/mL
same,EC50 (read off the curve),[4],~0.06 µg/mL
same,EC50 (read off the curve),[5],~0.03 µg/mL
same,EC50 (read off the curve),[7],~0.08 µg/mL
same,binding result,[6],no binding
B4,association response of the second antibody,[8],0.7 nm
same,association response of the second antibody,[9],0 nm
same,association response of the second antibody,[10],0 nm
same,association response of the second antibody,[11],0.6 nm
same,association response of the second antibody,[12],0 nm
same,association response of the second antibody,[13],0.7 nm
same,association response of the second antibody,[14],0.6 nm

# From patent publication US20200239579A1 (Genmab, published 2020)
